Measured values published in article PMC12655427.

How the values were obtained:
[1] = target: recombinant soluble human FcRn variant FcRn-F2A (FcRn heavy α-chain extracellular domain with β2-microglobulin) (human) (UniProt P55899); assay: BLI; Octet RED96e; FcRn loaded at 5 µg/mL on HIS1K (anti-penta-HIS) biosensors; antibody 900 as analyte at 89.9 nM; global 1:1 model; pH 7.4–7.5
[2] = target: recombinant soluble human FcRn variant FcRn-P2A (FcRn heavy α-chain extracellular domain with β2-microglobulin) (human) (UniProt P55899); assay: as above
[3] = target: recombinant soluble human FcRn variant FcRn-E2A (FcRn heavy α-chain extracellular domain with β2-microglobulin) (human) (UniProt P55899); assay: as above
[4] = target: recombinant soluble human FcRn variant FcRn-F2A (FcRn heavy α-chain extracellular domain with β2-microglobulin) (human) (UniProt P55899); assay: BLI; Octet RED96e; FcRn loaded at 5 µg/mL on HIS1K (anti-penta-HIS) biosensors; antibody 900 as analyte at 89.9 nM; global 1:1 model; pH 6.0–6.1
[5] = target: recombinant soluble human FcRn variant FcRn-P2A (FcRn heavy α-chain extracellular domain with β2-microglobulin) (human) (UniProt P55899); assay: as above
[6] = target: recombinant soluble human FcRn variant FcRn-E2A (FcRn heavy α-chain extracellular domain with β2-microglobulin) (human) (UniProt P55899); assay: as above

antibody 900 (variable regions of the light and heavy chains of the murine antibody 9E2 fused to the Fc fragment of human IgG1 with M252Y, S254T, T256E, E333A, H433K/N434F) (Fc fusion)
Kd [1]: 14.3 nM | Kd [2]: 17.3 nM | Kd [3]: 15.8 nM | Kd [4]: 4.13 nM | Kd [5]: 3.15 nM | Kd [6]: 3.46 nM
